Here are results for ten molecules from patent publication US20210324035A1 (University of California, published 2021).

Assay [1] addresses T1, HLA-A*02:01/NY-ESO-1 157-165 (…) (Homo sapiens; human). The assay is described as follows: flow cytometry, dextramer MFI on TCR-transduced Jurkat cells.
Assay [2] addresses T1, HLA-A*02:01/NY-ESO-1 157-165 (…). Put plainly: flow cytometry, dextramer MFI on CD8+ Jurkat against Jurkat cells.
The target is the same in assay [3]. The assay is described as follows: flow cytometry, A*02:01/NY157-165 dextramer staining of TCR-transduced human T cells from the blood of NSG mice. Background: In flow cytometry, cells or beads pass a laser one at a time.
Assay [4] deals with T2, NY-ESO-1 (CTAG1B) peptide on HLA-A*02:01 (human).
T2 peptide: SLLMWITQC
Put plainly: value cited from Robbins et al. 2008 (ref 37); not measured in this filing.

Assay [5] deals with T3, NY-ESO-1 (CTAG1B) peptide on HLA-B*07:02 (human).
T3 peptide: APRGPHGGAASGL
Put plainly: cytokine release.

Assay [6] deals with T2, NY-ESO-1 (CTAG1B) peptide on HLA-A*02:01. The assay is described as follows: multimer staining.
The target in assay [7] is T1, HLA-A*02:01/NY-ESO-1 157-165 (…). The assay is described as follows: cell-based or functional assay.
In assay [8] the target is HLA-B*18:01/NY-ESO-1 88-96 (Homo sapiens; human). Put plainly: cell-based or functional assay.
Assay [9] has as its target T4, NY-ESO-1 (CTAG1B) peptide on HLA-B*18:01 (human).
T4 peptide: LEFYLAMPF
The assay is described as follows: multimer staining.

Assay [10] concerns the target HLA-B*07:02/NY-ESO-1 60-72 (Homo sapiens; human). Put plainly: cell-based or functional assay.
For assay [11], the target named is T2, NY-ESO-1 (CTAG1B) peptide on HLA-A*02:01. Put plainly: cytokine release.
Assay [12] deals with T3, NY-ESO-1 (CTAG1B) peptide on HLA-B*07:02. The assay is described as follows: multimer staining.

A word on the Kd: it is the free concentration of one partner at which half of the binding sites on the other are occupied at equilibrium, for simple one-to-one binding. Read a low Kd as tighter binding.

As to “1G4 TCR, murinized (murine TCR constant domains)”, the fold increase of the intensity of dextramer binding, muTCR over parental huTCR in assay [1] stood at 1.4 fold. In [2], the fold increase of dextramer binding in the presence of CD8 amounted to 3.8 fold. In assay [3], this molecule had a percent of transduced T cells dextramer+ of 90%. As to 1G4 TCR, the Kd in assay [4] amounted to 9.3 µM. This counts as single-digit micromolar.

B1: 3A1 TCR, murinized (murine TCR constant domains) (TCR, V domains shown)
V domain 1: GQQLNQSPQSMFIQEGEDVSMNCTSSSIFNTWLWYKQDPGEGPVLLIALYKAGELTSNGRLTAQFGITRKDSFLNISASIPSDVGIYFCAGFLDSNYQLIWGAGTKLIIKP
V domain 2: EAQVTQNPRYLITVTGKKLTVTCSQNMNHEYMSWYRQDPGLGLRQIYYSMNVEVTDKGDVPEGYKVSRKEKRNFPLILESPSPNQTSLYFCASASGYRTDTQYFGPGTRLTVLE
notes: Full-length TCR on transduced Jurkat cells or primary human T cells; Human variable regions with mouse constant regions; also called 3A1 muTCR
Regarding B1, the “fold increase of dextramer binding in the presence of CD8” value in assay [2] is 1.9 fold.

B2: 3A1 TCR (TCR, V domains shown)
Valpha: GQQLNQSPQSMFIQEGEDVSMNCTSSSIFNTWLWYKQDPGEGPVLLIALYKAGELTSNGRLTAQFGITRKDSFLNISASIPSDVGIYFCAGFLDSNYQLIWGAGTKLIIKP
Vbeta: EAQVTQNPRYLITVTGKKLTVTCSQNMNHEYMSWYRQDPGLGLRQIYYSMNVEVTDKGDVPEGYKVSRKEKRNFPLILESPSPNQTSLYFCASASGYRTDTQYFGPGTRLTVL
As to B2, the binding result was “no recognition” in assay [5] and “recognises” in [6].

B3: 9D2 TCR, murinized (murine TCR constant domains) (TCR, V domains shown)
V domain 1: QKEVEQNSGPLSVPEGAIASLNCTYSDRGSQSFFWYRQYSGKSPELIMFIYSNGDKEDGRFTAQLNKASQYVSLLIRDSQPSDSATYLCAVDDKIIFGKGTRLHILP
V domain 2: DAGVIQSPRHEVTEMGQEVTLRCKPISGHDYLFWYRQTMMRGLELLIYFNNNVPIDDSGMPEDRFSAKMPNASFSTLKIQPSEPRDSAVYFCASSLGQPSTDTQYFGPGTRLTVLE
Turning to B3, the “IFN-γ secretion of TCR-transduced primary T cells co-incubated with peptide-pulsed A2+ K562 cells; functional sensitivity relative to 4A2” value in [7] was determined as 10 fold.

B4: 2B8 TCR, murinized (murine TCR constant domains) (TCR, V domains shown)
V domain 1: GQQVMQIPQYQHVQEGEDFTTYCNSSTTLSNIQWYKQRPGGHPVFLIQLVKSGEVKKQKRLTFQFGEAKKNSSLHITATQTTDVGTYFCADPNFGNEKLTFGTGTRLTIIP
V domain 2: EAQVTQNPRYLITVTGKKLTVTCSQNMNHEYMSWYRQDPGLGLRQIYYSMNVEVTDKGDVPEGYKVSRKEKRNFPLILESPSPNQTSLYFCASSLNPFATNEKLFFGSGTQLSVLE
Turning to B4, the “IL-2 production of TCR-transduced Jurkat cells co-incubated with cognate target cells; fold increase of murinized over fully human TCR” value in [8] was 18.6 fold.

B5: 2B8 TCR (TCR, V domains shown)
Valpha: GQQVMQIPQYQHVQEGEDFTTYCNSSTTLSNIQWYKQRPGGHPVFLIQLVKSGEVKKQKRLTFQFGEAKKNSSLHITATQTTDVGTYFCADPNFGNEKLTFGTGTRLTIIP
Vbeta: EAQVTQNPRYLITVTGKKLTVTCSQNMNHEYMSWYRQDPGLGLRQIYYSMNVEVTDKGDVPEGYKVSRKEKRNFPLILESPSPNQTSLYFCASSLNPFATNEKLFFGSGTQLSVL
Turning to B5, in assay [9], the binding result is “recognises”.

B6: 5G6 TCR (TCR, V domains shown)
Valpha: DAKTTQPNSMESNEEEPVHLPCNHSTISGTDYIHWYRQLPSQGPEYVIHGLTSNVNNRMASLAIAEDRKSSTLILHRATLRDAAVYYCILRTSGAGSYQLTFGKGTKLSVIP
Vbeta: SAVISQKPSRDICQRGTSLTIQCQVDSQVTMMFWYRQQPGQSLTLIATANQGSEATYESGFVIDKFPISRPNLTFSTLTVSNMSPEDSSIYLCSAGGAGASDTQYFGPGTRLTVL
As to B6, the binding result in [6] was “recognises”.

B7: 1E4 TCR, murinized (murine TCR constant domains) (TCR, V domains shown)
V domain 1: KQEVTQIPAALSVPEGENLVLNCSFTDSAIYNLQWFRQDPGKGLTSLLLIQSSQREQTSGRLNASLDKSSGRSTLYIAASQPGDSATYLCAVSTAYSGGGADGLTFGKGTHLIIQP
V domain 2: DTGVSQNPRHKITKRGQNVTFRCDPISEHNRLYWYRQTLGQGPEFLTYFQNEAQLEKSRLLSDRFSAERPKGSFSTLEIQRTEQGDSAMYLCASSPPTVRVYGYTFGSGTRLTVVE
As for B7, the “IL-2 production of TCR-transduced Jurkat cells co-incubated with cognate target cells; fold increase of murinized over fully human TCR” value in assay [10] came to 1.6 fold.

B8: 1E4 TCR (TCR, V domains shown)
Valpha: KQEVTQIPAALSVPEGENLVLNCSFTDSAIYNLQWFRQDPGKGLTSLLLIQSSQREQTSGRLNASLDKSSGRSTLYIAASQPGDSATYLCAVSTAYSGGGADGLTFGKGTHLIIQP
Vbeta: DTGVSQNPRHKITKRGQNVTFRCDPISEHNRLYWYRQTLGQGPEFLTYFQNEAQLEKSRLLSDRFSAERPKGSFSTLEIQRTEQGDSAMYLCASSPPTVRVYGYTFGSGTRLTVV
Consider B8, for which the binding result in [11] is recorded as “no recognition”; in [12], “recognises”.
